Measured values taken from patent US20110165145A1 (published 2011).

Assays:
[1] = target: T1, insulin-like growth factor I (IGF-I) (UniProt P05019 49-118); assay: cell-based or functional assay
[2] = target: T2, insulin-like growth factor II (IGF-II), amino acids 1-67 (human, UniProt P01344 25-91); assay: SPR, compared with DX-2647
T2 construct: recombinant; also called IGF-II (67aa); IGF2

[3] = target: T2, insulin-like growth factor II (IGF-II), …; assay: cell-based or functional assay
[4] = target: T3, IGF-IIE (amino acids 1-104 of pro-IGF-II) (human, UniProt P01344 25-128); assay: cell-based or functional assay
[5] = target: T2, insulin-like growth factor II (IGF-II), …; assay: SPR (Flexchip), Fab, 1st of duplicate
[6] = target: T3, IGF-IIE (amino acids 1-104 of …); assay: SPR (Flexchip), Fab, 1st of duplicate
[7] = target: T2, insulin-like growth factor II (IGF-II), …; assay: SPR (Flexchip), Fab, 2nd of duplicate
[8] = target: T3, IGF-IIE (amino acids 1-104 of …); assay: SPR (Flexchip), Fab, 2nd of duplicate
[9] = target: T2, insulin-like growth factor II (IGF-II), …; assay: SPR (value equals that of Table 6, there under IgGs); Fab, not IgG
[10] = target: T2, insulin-like growth factor II (IGF-II), …; assay: competition SPR (BIACORE T100), affinity in solution, free ligand read on huIR-A ECD; measurement 1
Description: (§1) Competition SPR (BIACORE®) was performed under conditions of partially mass-transport limited conditions according to previously described methodology (Nieba et al., 1996). Approximately 16,700 relative response units (RU) of huIR-A (-exon11) ectodomain was coupled by standard amine chemistry to a BIACORE® CM5 chip sensor. Uncoated flow-cell surface was used as a reference. […] Regeneration of the surface was achieved by injection of 30 ul NaCltrate/NaCl pH 4.5. […] These Req estimates were subsequently plotted against total concentrations of Fab used and the resulting inhibition curve was utilised to calculate dissociation constant (KD).

[11] = target: T3, IGF-IIE (amino acids 1-104 of …); assay: as above
Description: as §1

[12] = target: T2, insulin-like growth factor II (IGF-II), …; assay: competition SPR (BIACORE T100), affinity in solution, free ligand read on huIR-A ECD; measurement 2
Description: as §1

[13] = target: T3, IGF-IIE (amino acids 1-104 of …); assay: as above
Description: as §1

[14] = target: T1, insulin-like growth factor I (IGF-I); assay: SPR
[15] = target: T2, insulin-like growth factor II (IGF-II), …; assay: SPR, captured IgG, 1:1 binding model
[16] = target: T3, IGF-IIE (amino acids 1-104 of …); assay: SPR, captured IgG, 1:1 binding model
[17] = target: T1, insulin-like growth factor I (IGF-I); assay: SPR, captured IgG, 1:1 binding model
[18] = target: T2, insulin-like growth factor II (IGF-II), …; assay: SPR, IgG captured on anti-human Fc chip, ligand as analyte
[19] = target: T4, IGFBP-1 (UniProt P08833 26-259); assay: SPR: DX-2647 captured through its Fc, IGFBP-1 alone injected; concentration not on the sheet
T4 sequence (looked up): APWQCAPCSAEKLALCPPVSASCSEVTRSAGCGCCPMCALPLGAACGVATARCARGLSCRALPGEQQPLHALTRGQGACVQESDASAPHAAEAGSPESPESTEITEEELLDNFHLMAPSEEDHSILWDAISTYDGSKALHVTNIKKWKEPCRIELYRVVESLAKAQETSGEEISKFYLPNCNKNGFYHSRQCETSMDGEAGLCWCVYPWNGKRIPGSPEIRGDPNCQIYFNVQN

[20] = target: pre-formed complex of IGF-II and IGFBP-1 (human, UniProt P08833 26-259); assay: SPR: DX-2647 captured through its Fc, pre-formed IGF-II/IGFBP-1 complex injected; concentration not on the sheet

T3 sequence (P01344 25-128): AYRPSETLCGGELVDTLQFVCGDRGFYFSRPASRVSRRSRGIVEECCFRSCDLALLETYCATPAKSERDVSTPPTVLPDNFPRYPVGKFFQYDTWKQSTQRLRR
T1 sequence (P05019 49-118 limits assumed): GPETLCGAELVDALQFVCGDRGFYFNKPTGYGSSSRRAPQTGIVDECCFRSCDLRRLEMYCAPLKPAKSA
T2 sequence (P01344 25-91): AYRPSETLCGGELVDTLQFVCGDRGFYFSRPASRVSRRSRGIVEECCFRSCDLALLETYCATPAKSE

B1: M0064-F02 Fab (Fab, V domains shown)
VH: EVQLLESGGGLVQPGGSLRLSCAASGFTFSNYIMWWVRQAPGKGLEWVSVISSSGGMTRYADSVKGRFTISRDNSKNTLYLQMNSLRAEDTAVYYCARDNGDYVGEKGFDIWGQGTMVTVSS
VL: DIQMTQSPSSLSASVGDRVTITCRASQSISNYLNWYQQKPGKAPKLLIYTASTLQSGVPSRFSGSASGTDFTLTINSLQPEDFATYSCQQSYNSPWTFGQGTKVEIKR
notes: soluble Fab (sFab); also the Fab crystallised with IGF-II; also called R0032-A11; 566A-M0064-F02
- IGF-I stimulated Ba/F3 cell proliferation, sFab at 50 µg/ml [1]: ~30 % inhibition
- fold less affinity than DX-2647 [2]: 7 fold
- IC50, IGF-II stimulated Ba/F3 cell proliferation (MTS) [3]: 0.68 µg/mL
- IC50, IGF-IIE stimulated Ba/F3 cell proliferation (MTS) [4]: 3.12 µg/mL
- Kd [5]: 0.45 nM
- Kd [6]: 0.32 nM
- Kd [7]: 1.2 nM
- Kd [8]: 0.29 nM
- Kd [9]: 0.14 nM
- Kd [10]: 1.03 nM
- Kd [11]: 1.91 nM
- Kd [12]: 0.503 nM
- Kd [13]: 0.352 nM

B2: DX-2647 (antibody, human IgG1, kappa, V domains shown)
VH: EVQLLESGGGLVQPGGSLRLSCAASGFTFSNYIMWWVRQAPGKGLEWVSVISSSGGGTLYADSVKGRFTISRDNSKNTLYLQMNSLRAEDTAVYYCARDNGDYVGEKGFDIWGQGTMVTVSS
VL: DIQMTQSPSSLSASVGDRVTITCRASQSISNYLNWYQQKPGKAPKLLIYTASTLQSGVPSRFSGSGSGTDFTLTISSLQPEDFATYYCQQSYNSPWTFGQGTKVEIKR
notes: human IgG1, germlined from 566A-M0064-F02, expressed in CHOK1SV cells
- Kd [14]: 28 nM
- Kd [15]: 0.0226 nM
- koff [15]: 2.38e-05 s⁻¹
- kon [15]: 1.06e+06 M⁻¹ s⁻¹
- Kd [16]: < 0.023 nM
- koff [16]: < 2e-05 s⁻¹
- kon [16]: 2.06e+06 M⁻¹ s⁻¹
- Kd [17]: 17 nM
- koff [17]: 0.1 s⁻¹
- kon [17]: 5.8e+06 M⁻¹ s⁻¹
- Kd [18]: 0.023 nM
- binding result [19]: no binding
- binding result [20]: no binding
